Measured values taken from patent US7189515.

T1: mature human interleukin-8 with C-terminal hexahistidine (human, UniProt P10145 21-99, biotin-XX (NHS ester labelling) in the affinity determination of Example 21; unlabelled in Examples 27 and 34)
T1 construct: mature; also called IL-8; IL8
T1 sequence: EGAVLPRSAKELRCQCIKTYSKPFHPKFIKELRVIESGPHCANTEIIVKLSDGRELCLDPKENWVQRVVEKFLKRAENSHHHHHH

B1: M1-21 (Fab)
heavy: QVQLVQSGGGVVQPGKSLRLSCAASGFTFSYYGMHWVRQVPGKGLEWVAAVWYDGSTTYSPDSVKGRFTISRDDSKNTLYLQMSSLRAEDTAVYYCARDRVGLFDYWGQGTLVTVSSASTKGPSVFPLAPSSKSTSGGTAALGCLVKDYFPEPVTVSWNSGALTSGVHTFPAVLQSSGLYSLSSVVTVPSSSLGTQTYICNVNHKPSNTKVDKKAEPKSHHHHHH
light: not shown
notes: also called monoclonal antibody M1-21; M1_21H
B2: M1-10 (Fab)
heavy: QVQLVQSGGGLVHPGGSLRLSCEGSGFIFRNHPIHWVRQAPGKGLEWVSVSGIGGDTYYADSVKGRFSISRDNAKNSLYLQMNSLRAEDMAVYYCAREYYYGSGSYRVDYYYYGMDVWGQGTTVTVSSASTKGPSVFPLAPSSKSTSGGTAALGCLVKDYFPEPVTVSWNSGALTSGVHTFPAVLQSSGLYSLSSVVTVPSSSLGTQTYICNVNHKPSNTKVDKKAEPKSHHHHHH
light: not shown
notes: also called monoclonal human antibody M1-10; M1_10H

Target: T1, mature human interleukin-8 with …
Assay: BIACORE two-site assay, blank-subtracted; IL-8 held by primary antibody (competitor) M1-10
Protocol: A BIACORE® 3000 instrument (Biacore AB, Uppsala, Sweden) was used to measure the epitope binding.
Each antibody was diluted to 100 µg/mL and the IL-8 was diluted to 1 µM in 10 mM N-2-hydroxyethylpiperazine-N'-2-ethane-sulfonic acid, 150 mM sodium chloride, 3 mM EDTA, 0.005% polysorbate 20, pH 7.4 (HBS-EP, Biacore AB, Uppsala, Sweden). […] IL-8 (10 µL) was then bound to the primary antibody in all 4 channels. One secondary antibody (10 µL) was passed through one channel each. The resonance units of the secondary antibodies were measured 20 seconds after the injection was over. Blank resonance unit values for each primary/secondary antibody combination were obtained by injecting HBS-EP instead of IL-8 and these were subtracted from the resonance units measured for the corresponding primary/secondary antibody pairing that was contacted with IL-8. Blocking antibody injections were not done.

Row | Binder | Resonance Units
1 | B1 | 706 RU
2 | B2 | -17 RU
